From the DeepSol protein solubility set

Assay: soluble on expression in E. coli; label from the status in PepcDB or PDB records

Sequence	soluble on expression in E. coli
GDYIYADSNNNGVYGDDNDYTFQKTSNKPKYNFGFQASAAWKGFDLSMVWAGAAGFSIYWGATTGYNAASTEWGSTIAQRVAENHYFYNPENPDDPRTNINAKYPRMAYIDGYVQNRHGNTTLWLYKGDYIKLKNLSLGYTLPKNWVSKIAMQNARVYVSAENLLTITGFEGQDPESATGMGYSPFRTIAIGANITF	not soluble
MNPIAVTLLTGFLGAGKTTLLRHILNEQHGYKIAVIENEFGEVSVDDQLIGDRATQIKTLTNGCICCSRSNELEDALLDLLDNLDKGNIQFDRLVIECTGMADPGPIIQTFFSHEVLCQRYLLDGVIALVDAVHADEQMNQFTIAQSQVGYADRILLTKTDVAGEAEKLHERLARINARAPVYTVTHGDIDLGLLFNTNGFMLEENVVSTKPRFHFIADKQNDISSIVVELDYPVDISEVSRVMENLLLESADKLLRYKGMLWIDGEPNRLLFQGVQRLYSADWDRPWGDEKPHSTMVFIGIQLPEEEIRAAFAGLRK	soluble
MAHHHHHHMSVSVTEHRHGDMHHGTMRRRCLTRVLLAGPQGDLEALVSRMPRTWSLQQPLEMLQPEAVEEERANTASAAAATRTENAGLAGGKVPDKSAASVMISYSPVRATLPLAAAASEEERAEEDVVDVVAAVEEKAAMKADLHNSSGSAVEPPSLEGTPNVRLHAAQAPHEEQQEEGDCGVVVAHEAPALTEDGIPGADSAVVRAAEVAATLDIGSQLAEAAPCADRASLDSSAALPVSQVPE	not soluble
AHHHHHHGSYEVTKFGGEGKRLEDYREIIGDEALEAIKAKAENLKDKSFVHVNSTSFGGGVAEILHNLVPLMRDVGIDARWFVIEGTNEFFNVTKSFHNALQGNKELRLTEEMKKLYLEINKKNAEDIDLTQFDYVLIHDPQPAPLIEFYEKRQPWIWRCHIDLSDPNLEFWKFLRQFVEKYDRYIFHMEEYVQEDLNQEKVVIMPPSIDPLSEKNMELSESEILKTLERFDVDPERPIITQVARFDPWKGVFDVIDVYRKVKEKIPEVQLLLVGVMAHDDPEGWIYFEKTLRKIGEDYDIKVLTNLTGVHAREVNAFQRASDVILQMSIREGFGLTVTEAMWKEKPVVGRAVGGIKLQIVDGKTGFLVKDVNDAIEKTLYLLEHKDVAQEMGKNAKERIKENFIITKHLERYLDLLNSF	soluble
MSLAFNVAFRLDAGAEIGLGHLMRCLAIADRLRAAGAECHFLCHDLPAHLLPLLHAHHHHSLTTQDDAGPLPSLQPDWLVFDHYQIDHVVEQELAVHCDQLLVIDDLADRPHYCQLLLDQGPLRTAADYQPLIPADCRLLLGTDYALLRPAYRQLARQQTSQWQGGLICFGGADPAGACLTTLNSLACLPWPRTIQWTLVAGGANPFWPELEQRVAELPELKITLLRQSDQMAQLMNQHDFTIGAAGGMTWERACLGLPTLAVPIVDNQEGHHHHHH	not soluble
MKGAEALLRALEREGVEVIFGHPGGAIMPTYDALYDSPIRHILVRHEQGGVHAATAYARASGRVGVVMATSGPGALNLVTGLADAMMDSTPVVAITGNVPRALIGTDAFQEADVTGVTMPITKHNYLVQDVNEIPRVVKEAFHIAATGRPGPVLIDIPKDVQLAEFTGSFDVKLDLPGYKPTLKGHPKQIERALDALEKAERPVLMVGGGAQHAHAELLAFAEKTGLPVITTLMGLGAFPGNHPLWLGMPGMHGTVAANRAIHHADVILAIGLRFDDRVTGKVSRFAPHAHTIIHVDIDPAEIGKVVRTHIPIVGDSRLVLKELLKGAKALRLAAWWRELEEWRTRYPLRYRPKPHLQSQEVIRAFYEATGGHAIVTTGVGQHQMFAAQFFPVTRPRSFLTSGGLGTMGVGLPFAIGAKIARPEELVIDFDGDGSFQMTLQELATVVKYKLDVKVVILNNGYLGMVRQWQDLFHAKRYSEVYLADSNPDFARLAEAYGIKGVRVERKEDLMKGVEAVLNADGPVVAEFKVYQEEGVFPMIPAGGAAEDMILEPPEEKEEVGA	soluble
EHEICAGETGVPLATDTIMLSRQVSFDRIRLLSGVSNDELQLLNPQYKRGIIPGNTQLCRLRLPVASIKKLDKVRDSLYSPDLEASVSDFPEQGGQHSGGSGRTAIFHNVKQGETLLSIAKRYGTTVAAIKRANGLKSSSVKPGQRLQITKSSASGTKKKSKYSAKRKSRRRK	not soluble
MIETPYYLIDKAKLTRNMERIAHVREKSGAKALLALKCFATWSVFDLMRDYMDGTTSSSLFEVRLGRERFGKETHAYSVAYGDNEIDEVVSHADKIIFNSISQLERFADKAAGIARGLRLNPQVSSSSFDLADPARPFSRLGEWDVPKVERVMDRINGFMIHNNCENKDFGLFDRMLGEIEERFGALIARVDWVSLGGGIHFTGDDYPVDAFSARLRAFSDRYGVQIYLEPGEASITKSTTLEVTVLDTLYNGKNLAIVDSSIEAHMLDLLIYRETAKVLPNEGSHSYMICGKSCLAGDVFGEFRFAEELKVGDRISFQDAAGYTMVKKNWFNGVKMPAIAIRELDGSVRTVREFTYADYEQSLS	soluble
MPMVLVVLDHDGNRLKKGSLEALTRARDLAQALGGKVAGVLLAEEKAPVEEARKYVEVLYTATLGPYTAEKWAAGVLKAAEASGAKAVVAPSSRQSRAYLGRVAYALRAGLLEDTLESRVEGGEVHATRYAYLNRVTQRVKAALPVVLTVKPNTTPLAEPLPGEAEAVALSVPEVPTVEVLERLQEEKKGVSLTEADVVVTGGRGMGSPEAFKLVEELAALLGGAVGATRAVVDAGWRPYAEQVGQTGKTVQPSLYIALGVSGAVQHLAGMNKSKYIVAVNKDPEAPIFKHADYGIVGDVHQVLPALIEAVKKLKD	soluble
MGSDKIHHHHHHMENIESSFIDLPNPRKDIEDLQPYSAPLEGRRNLLRLDFNENTIGPSPLVIKSLREISRDEISAYPEYSGLKEKVVESLIKKNSNVNINSSEVGIFNGVDAAINAIFHAYGNFDDLMLTTLPTFGYYTPCAQMRGMQIKAIPYEGEGFQYPFDSICEFLTQNNPKILLICNPNNPTGTRLSPERIIEISKLSSKTLVVVDELYEAFTGDSVLPFLNFQTTPNLVVLRSLSKTAGLASLRIGFAIGHSKVINIVNRVTGPYDVNSFAVIAAFAALNDQSYIDSYVQEVLEARNWIKDQFEKHHVKHHIDGGNYFLLWPKSKPQLVEQKLKSSGILIRNMDKKKNLKGSIRVSIGTIDQMKRFWSAFRIVDEV	not soluble
MGSDKIHHHHHHMLTTGTTRITGDRKLNDLIGHLIDPQLVEVEAAPQIKAMATSRLNFKMQKQTQTNWCWAAVSASVGNFYRTGSWTQCGVASASLDRNCCNQPGPCNIYGYLDSALRITRSYNGMNRGSLQMSAIRNQIKKGRPIGLRCAWYGGGAHFLVIYGTDGDYLLIADSIYGYSTRALNSFPRLYKSGGNWTDTYFTVKK	not soluble
MSLFPILETDRLILRQITDQDAEAIFACFSNDEVTRYYGLENMESIEQAISMIQTFAALYQEKRGIRWGIERRDTKELIGTIGFHALAQKHRRAEIGYEIIPEHWRNGFASEVISKVVSYGFSALGLSRIGAVVFTDNEASNRLLLKMGFQKEGVLRQYMYSKWDSIEGGSHHHHHH	soluble
PAQDNSRFVIRDRNWHPKALTPDYKTSIARSPRQALVSIPQSISETTGPNFSHLGFGAHDHDLLLNFNNGGLPIGERIIVAGRVVDQYGKPVPNTLVEMWQANAGGRHRHKNDRYLAPLDPNFGGVGRCLTDSDGYYSFRTIKPGPYPWRNGPNDWRPAHIHFGISGPSIATKLITQLYFEGDPLIPMCPIVKSIANPEAVQQLIAKLDMNNANPMDCLAYRFDIVLRGQRKTHFENC	soluble
MGSDKIHHHHHHMILLNKPVAPNLQKLNSYLERVHDTGWYTNFGPLHNELTEKLEEYLGVSNLLLVSNGTLAIQLAAKVFNVKQTITTPFSFVATSSSLLWQGIDLAYSDIERSSLNICPEELEKNWKSNDSYDSLLATHVYGNPCDVQKIDEIAKKYNKKIMYDAAHAFGIKVGNKSVLSFGDASTLSFHATKVFHTVEGGAVIFKDRNHFDEAKSLINFGIQNDGTLGTPGINAKLNEYQAAVGLCLLESIDDIICHRSNLFEIYRKELSNVIELPLWHRDSNYNGAYMPILPSTEVERLKIGEQLKANNIQFRRYFYPSLDKAYLRVKSFNCPVSNYIAENALCLPLHMYMTKEDVLKITATIKEIY	not soluble
MTIYDINFAELYQQHLIACNHYNLPPIKWDKKAVKMAENLVGKPSAYNQQLLQAMNVQTDEAVLDIGCGPGTFAVPLAQQGSTVYALDYSNGMLDCLAQFKQKFGLHHLTTFHKSWADNWDDVPQADVVLASRSTLVDDLDDMIEKLCAKAKKRVFLTSVTQRHFLDEGVFEAIGREDIGFPTYIYLLNRLYQKGIQANLNFIETESGCFQGESYEDLLASVEFSLGELSEKEKQGLKAFYDRKQANNEPISHGQKKWALIWWNVDRILEHHHHHH	soluble
MAHHHHHHMKTCKTGIQKVRDVSEATVLVLDWFERRNKPATPQSLADALGSRVAKSLLQKILEQLHAEEKLHVKDMKKIRFYYRRVLPLSDADGATTTKQHSEPEDDPAATTGERGNAVNVPEVCGGAETCAESPADAHAALLHAVAISAVQLSERSLRLTRWRGWPSSTERADKYADLAREVCELRNSLERLQSRHAGESAEAHGGGSWTSRVRRAVCRYRRARRHWVQRKDWAMCLLEATAGDAHTPLQAAALLGCTTDAEAGVSFEDTAVALPAPLMRELNLSQR	not soluble
MFIAGYIEKPERGKDIILTEKGRISNEKFFPTLEEKRLIDQYWKNKSELRKARKKANSIIDDSTSTKAVEIDENSGDSDWKTELIDQLKKFSPGKFESFSRLLISKMGVRIDNQRGIIRSGDHSIDGFGYFQSDEFRTSRVAIQAKRFTNGSVGEPEIDKFKGVMDSFNAEYGIFITTSYFTDQAKEKAVVGNNSVTLIDGIKLASLVQKYQLRV	not soluble
MNPFHELEPGPEVPEVVYALIEIPKGSRNKYELDKKTGLLKLDRVLYSPFFYPVDYGIIPQTWYDDGDPFDIMVIMREPVYPLTIIEARPIGIMKMEDSGDKDWKVLAVPVEDPYFNDWKDISDVPKAFLDEIAHFFQRYKELQGKTTKIEGWGNAEEAKREILRAIEMYKEKFGKEE	soluble
MDDDPHFDQNVQTVIAKTEAYITESVKAGGTGRALRDAHAKGYGLVRGEVEILDGLPPEYAQGIYATPGTHDALIRFSNGSPHAGADARLGAATGLALKIFDIPGPTLLEDEPDTGTFDYANINGPIFFCNTVEHYLFIQELFLNAPAYFSQGRPGAHRFFTDFVTGKGTLDQDDWAWDEFLAFLRLSKTPPANLLLSSYWTMGAVRHGDYIAKVRITPDPSFAAAVVRRDIDPTSAQEVFRPALEAELQERPYAFDIQVQLCTDLERMPVEDTTVEWPEQLSPSVTVAKLRLPRQDISGPENLEKMDSLSFTPWRVTAEHAPLGNIMRSRKEVYRQSSMERHKLEHHHHHH	not soluble
ENLMQVYQQARLSNPELRKSAADRDAAFEKINEARSPLLPQLGLGADYTYSNGYRDANGINSNATSASLQLTQSIFDMSKWRALTLQEKAAGIQDVTYQTDQQTLILNTATAYFNVLNAIDVLSYTQAQKEAIYRQLDQTTQRFNVGLVAITDVQNARAQYDTVLANELTARNNLDNAVEQLRQITGNYYPELAALNVENFKTDKPQPVNALLKEAEKRNLSLLQARLSQDLAREQIRQAQDGHLPTLDLTASTGISDTSYSGSKTRGAAGTQYDDSNMGQNKVGLSFSLPIYQGGMVNSQVKQAQYNFVGASEQLESAHRSVVQTVRSSFNNINASISSINAYKQAVVSAQSSLDAMEAGYSVGTRTIVDVLDATTTLYNAKQELANARYNYLINQLNIKSALGTLNEQDLLALNNALSKPVSTNPENVAPQTPEQNAIADGYAPDSPAPVVQQTSARTTTSNGHNPFRN	soluble
